Where a chain is given by its changes, count along the chain named.
T1: recombinant protein TCRVB 6-5 (human, UniProt A0A0K0K1A5 22-114, limits assumed, captured on a Biotin CAP sensor chip (biotinylated; site not stated))
T1 construct: also called TCRVβ 6-5; TCRβ V6-5*01
T1 sequence (TCR beta): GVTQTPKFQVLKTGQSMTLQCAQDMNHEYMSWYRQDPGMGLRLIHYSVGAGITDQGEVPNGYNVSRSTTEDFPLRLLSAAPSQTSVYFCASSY

B1: A-H.52 (scFv)
scFv: QVQLVQSGAEVKKPGSSVKVSCKASGYSFTLGYIHWVRQAPGQGLEWMGWFFPGSGNIKYNEKFKGRVTITADTSTSTAYMELSSLRSEDTAVYYCAGSYYSYDVLDYWGQGTTVTVSSGGGGSGGGGSGGGGSGGGGSDIQMTQSPSFLSASVGDRVTITCKASQNVGINVVWHQQKPGKAPKALIYSSSHRYSGVPSRFSGSGSGTEFTLTISSLQPEDFATYFCQQFKSYPLTFGQGTKLEIK
notes: Said to be a phage clone and a monovalent scFv; also called phage clone; monovalent scFv
B2: A-H.54 (scFv)
scFv: B1 scFv with T30H, L31N, G32W
notes: Called a phage clone; also called phage clone
B3: A-H.53 (scFv)
scFv: B1 scFv with T30R, G32T
notes: as for B2

These binders were tested against T1, recombinant protein TCRVB 6-5 (assay: SPR, TCRVB 6-5 on Biotin CAP chip, compared with BJM0277).
Procedure: (§1) TCRVB 6-5 at 5 ug/mL was immobilized on a Biotin CAP Series S Sensor Chip to 60 RU. A-H.52 was diluted to 50 nM and then serially diluted two fold. Association was 120 seconds, dissociation was 300 seconds. This assay was run in 1×HBS-EP+ Buffer pH 7.4 and 25 C. The data was fit using a 1:1 binding model. A-H.52 is a phage clones and is a monovalent scFv. A-H.52 has two mutations on CDRH1.
(§2) TCRVB 6-5 at 5 ug/mL was immobilized on a Biotin CAP Series S Sensor Chip to 60 RU. A-H.53 was diluted to 50 nM and then serially diluted two fold. Association was 120 seconds, dissociation was 300 seconds. This assay was run in 1×HBS-EP+ Buffer pH 7.4 and 25 C. The data was fit using a 1:1 binding model. A-H.53 (phage clone) affinity is in the pM range (Table 16).
as §1, with “A-H.54” for “A-H.52”, “model.” for “model. A-H.52 is a phage clones and is a monovalent scFv. A-H.52 has two mutations on CDRH1.”

Q: How did the “fold greater affinity than BJM0277” value turn out when B1 was run?
A: Its value is 20 fold.

Q: For B2, which “fold greater affinity than BJM0277” value is on record?
A: Its value is 17 fold.

Q: For B3, which “fold greater affinity than BJM0277” value is on record?
A: The value was 200 fold.

Each binder was assayed against T1, recombinant protein TCRVB 6-5 (assay: SPR, TCRVB 6-5 captured on Biotin CAP chip, analyte from 50 nM in two-fold dilutions, 1:1 model, 25 C).
Procedure: as §1, §2
as §1, with “A-H.54” for “A-H.52”, “model.” for “model. A-H.52 is a phage clones and is a monovalent scFv. A-H.52 has two mutations on CDRH1.”

Q: With B1 as the binder, how does the Kd read?
A: Its Kd is 1.76 nM.

Q: With B2 as the binder, how does the Kd read?
A: Its Kd is 2.22 nM.

Q: B3 was tested. Which Kd did it give?
A: The Kd was 0.165 nM.
